B1: Phospholipid-transporting ATPase IC (Homo sapiens), O43520 (parent)
chain: MSTERDSETTFDEDSQPNDEVVPYSDDETEDELDDQGSAVEPEQNRVNREAEENREPFRKECTWQVKANDRKYHEQPHFMNTKFLCIKESKYANNAIKTYKYNAFTFIPMNLFEQFKRAANLYFLALLILQAVPQISTLAWYTTLVPLLVVLGVTAIKDLVDDVARHKMDKEINNRTCEVIKDGRFKVAKWKEIQVGDVIRLKKNDFVPADILLLSSSEPNSLCYVETAELDGETNLKFKMSLEITDQYLQREDTLATFDGFIECEEPNNRLDKFTGTLFWRNTSFPLDADKILLRGCVIRNTDFCHGLVIFAGADTKIMKNSGKTRFKRTKIDYLMNYMVYTIFVVLILLSAGLAIGHAYWEAQVGNSSWYLYDGEDDTPSYRGFLIFWGYIIVLNTMVPISLYVSVEVIRLGQSHFINWDLQMYYAEKDTPAKARTTTLNEQLGQIHYIFSDKTGTLTQNIMTFKKCCINGQIYGDHRDASQHNHNKIEQVDFSWNTYADGKLAFYDHYLIEQIQSGKEPEVRQFFFLLAVCHTVMVDRTDGQLNYQAASPDEGALVNAARNFGFAFLARTQNTITISELGTERTYNVLAILDFNSDRKRMSIIVRTPEGNIKLYCKGADTVIYERLHRMNPTKQETQDALDIFANETLRTLCLCYKEIEEKEFTEWNKKFMAASVASTNRDEALDKVYEEIEKDLILLGATAIEDKLQDGVPETISKLAKADIKIWVLTGDKKETAENIGFACELLTEDTTICYGEDINSLLHARMENQRNRGGVYAKFAPPVQESFFPPGGNRALIITGSWLNEILLEKKTKRNKILKLKFPRTEEERRMRTQSKRRLEAKKEQRQKNFVDLACECSAVICCRVTPKQKAMVVDLVKRYKKAITLAIGDGANDVNMIKTAHIGVGISGQEGMQAVMSSDYSFAQFRYLQRLLLVHGRWSYIRMCKFLRYFFYKNFAFTLVHFWYSFFNGYSAQTAYEDWFITLYNVLYTSLPVLLMGLLDQDVSDKLSLRFPGLYIVGQRDLLFNYKRFFVSLLHGVLTSMILFFIPLGAYLQTVGQDGEAPSDYQSFAVTIASALVITVNFQIGLDTSYWTFVNAFSIFGSIALYFGIMFDFHSAGIHVLFPSAFQFTGTASNALRQPYIWLTIILAVAVCLLPVVAIRFLSMTIWPSESDKIQKHRKRLKAEEQWQRRQQVFRRGVSTRRSAYAFSHQRGYADLISSGRSIRKKRSPLDAIVADGTAEYRRTGDS
partner: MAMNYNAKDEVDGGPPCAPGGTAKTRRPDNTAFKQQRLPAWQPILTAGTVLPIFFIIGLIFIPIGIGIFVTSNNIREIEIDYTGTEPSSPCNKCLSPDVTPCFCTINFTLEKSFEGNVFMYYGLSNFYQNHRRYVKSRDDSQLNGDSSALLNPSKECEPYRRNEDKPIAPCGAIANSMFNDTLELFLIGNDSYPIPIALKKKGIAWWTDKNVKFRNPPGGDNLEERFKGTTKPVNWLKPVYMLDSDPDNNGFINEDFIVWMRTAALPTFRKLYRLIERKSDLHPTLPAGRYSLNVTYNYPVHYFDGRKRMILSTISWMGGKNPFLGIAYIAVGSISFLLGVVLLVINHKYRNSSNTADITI

Variants of: B1
Conditions: with cc50a_human TMEM30A

Variant	effect of a mutation on the interaction
D554N	disrupting interaction
G1040R	decreasing interaction
G308V	disrupting interaction
D70N	decreasing interaction
R867C	decreasing interaction
I661T	decreasing interaction
D454A	disrupting interaction

— IntAct's records for PubMed 19731236
